The results in this text go back to paper PMC8860610, “The fork protection complex recruits FACT to reorganize nucleosomes during replication” (Nucleic Acids Research, 2022).

Details in all cases: both partners purified
For experiment [1], the target named is T1, Spt16 subunit on its own (Saccharomyces cerevisiae, UniProt P32558 1-1035).
T1 construct: Spt16, Saccharomyces cerevisiae, without Pob3; also called Spt16 alone; source: yeast strain yBS2, purified by the same strategy as FACT
In words: pull-down; 1.5 μM GST fusion proteins (Tof1_N, Tof1_M, Tof1_C, Csm3) as bait on glutathione agarose, 3 μM fl FACT or FACT truncations as prey, 90 min at 4°C, washed with buffer G (300 mM NaCl), eluted with glutathione, SDS-PAGE.

Experiment [2] concerns the target T2, full-length (fl) FACT (Spt16-Pob3) (Saccharomyces cerevisiae, UniProt P32558 1-1035; Q04636 1-552).
T2 construct: Spt16, subunit of FACT, Saccharomyces cerevisiae; Pob3, subunit of FACT, Saccharomyces cerevisiae; His-tag cleaved by TEV protease; also called yFACT when together with Nhp6; source: yeast strain yBS2, galactose-induced, purified (HisTrap, TEV cleavage, Q column, Superdex 200)
The experiment is described as above.

The target in experiment [3] is T2, full-length (fl) FACT (Spt16-Pob3). In words: pull-down; 1.5 μM CBP-Csm3Tof1 as bait on Calmodulin Affinity Resin, 3 μM fl FACT as prey, 90 min at 4°C, washed with buffer C (25 mM HEPES-NaOH pH 7.6, 300 mM NaCl, 2 mM CaCl2), eluted with EDTA and EGTA, SDS-PAGE.
In experiment [4] the target is T3, FACT consisting of Spt16 and GST-tagged Pob3 (Saccharomyces cerevisiae, UniProt P32558 1-1035; Q04636 1-552).
T3 construct: Spt16, subunit of FACT, Saccharomyces cerevisiae; Pob3, subunit of FACT, Saccharomyces cerevisiae; The methods speak of a His-tag cleaved by TEV protease without telling which subunit carried it; also called GST-Pob3Spt16; GST-tagged Pob3-Spt16; source: yeast strain yBS2, galactose-induced, purified (HisTrap, Q column, Superdex 200)
Briefly: pull-down; 0.5 μM GST-Pob3Spt16 as bait with 1 μM replisome factor, on ice 30 min, immobilised on glutathione agarose 90 min at 4°C, washed with buffer G (50 mM HEPES-NaOH pH 7.6, 300 mM NaCl, 0.05% NP-40), eluted with glutathione, SDS-PAGE.

B1: GST-tagged Tof1_C (938-1238 aa) (domain or fragment, Saccharomyces cerevisiae, UniProt P53840 938-1238, looked up)
chain: PSSSYLLRVRSEKDSFSHNEQDGWEGDDDYDYNDPYIVPDDQILSKSDAAYFKDLDNNASDKLKGTKFSKGIARSKKKDKRKRRKGEAKTNLPMFGDQDDERPQTVRERHGVFSKEFISDSEDDEDLMNPIFFENETYMRWLLDKNNGQLTEDRYIQFAKFAAERMNNGGVVTGDYTSLFGGSIPSIESIRATESSSFAPDKSLISLASHVASEMSIFDVNNNNNNQLSDDDVNSESRNSLGSSQPSNSQNMFQSEVYSRKESTKRSLEASAADESDEDEEAIRLFGKKSRVVLSQGDSDD
notes: Tof1, Saccharomyces cerevisiae, residues 938-1238, codon optimized for bacteria; Cloned into a pET GST-His6-TEV vector; no cleavage is described; source: E. coli BL21 (DE3) codon plus RIL, purified (GSTrap, Q column, Superdex 200)
B1: the binding result in experiment [1] and in experiment [2] was “binds” each time.

B2: Tof1-Csm3 (full-length, CBP-tagged) (complex, Saccharomyces cerevisiae)
chain 1: MSADLQQGTTNAADFSLTVLRARIALLATAIGGPDYTSQIDPPPYKLGDDCLACLKDLKRWFKLVDDQQKRWDVAMAVAEYRILTDDLLPILIDWENKCSLAAKLAKNNPDHEEFRNKAYYDKIALNCLQLLVLMTWPLIVTEQSSSNQITLYGELKKHQLVYKKTILSMESGKVLRAAIRLALDVIKIDRLSRTPRDNMVLKLVLNFFRNVIAIEPGEFTINTKKSMPKKGITSIDTLPPNVSMDDISLNTVISSFHKNKVFGFLLTLTSSLSKEFDQDFINIPLLEIMFYFTKDVNQELLFPRQFETGTHSKVVNKNESSSANNIVTSAGFELSKLLQKEHQMRKNVIKHTSARHSRFGGLLSIQTPDKTRLTVSGSQALVDEKIALQKLDDSKKWNKRIIKKHQSVAAEGLPNSLLNSQTGKAIFFTESNGKHFKEFINNFIDSGFNILLHSVTNYFTTEQDRMVTLEQVEYLLFFAWFVKYQLLRSKIDNSADIKQVSEALKEVTFILVSSLLRSAYDLKNWTVTHAGMIAFNELLNLVSRTKAAQEEDSTDIEFIVSRLFSDERIQLLSNLPKIGSKYSLQFMKSCIELTHSVLKVLEQYSDDKTLVIEGKSRRQKKFNISEGDITKLIEEENVDRDEALDILTSSLRSIEVNFQKVQANYMTEPVIETYINFLERFRELEDDSIKKVFSFFHRVFVQAKEQALLFRFDLIILLREMLSPDGLDRMSRSRKYVSQFSDYFLARLKKRLKKSPAWFVGLLFPPLHNSEVGFYQRYGEYNVLNNESMYAAPASQFKPIPDEEALPPSILLDMKYGVLVSTLLDDGKTELLDQLLKHITHTLDIFKSWLTVNVNAGKETVNPPNEYFTLTGVLNNDPIFKDKDYRALLLLIGYSIPRKINEPCFLPGTVEVSDLTVSCELVKKYLSTPFETPNGLPSSSYLLRVRSEKDSFSHNEQDGWEGDDDYDYNDPYIVPDDQILSKSDAAYFKDLDNNASDKLKGTKFSKGIARSKKKDKRKRRKGEAKTNLPMFGDQDDERPQTVRERHGVFSKEFISDSEDDEDLMNPIFFENETYMRWLLDKNNGQLTEDRYIQFAKFAAERMNNGGVVTGDYTSLFGGSIPSIESIRATESSSFAPDKSLISLASHVASEMSIFDVNNNNNNQLSDDDVNSESRNSLGSSQPSNSQNMFQSEVYSRKESTKRSLEASAADESDEDEEAIRLFGKKSRVVLSQGDSDD
chain 2: MDQDFDSLLLGFNDSDSVQKDPTVPNGLDGSVVDPTIADPTAITARKRRPQVKLTAEKLLSDKGLPYVLKNAHKRIRISSKKNSYDNLSNIIQFYQLWAHELFPKAKFKDFMKICQTVGKTDPVLREYRVSLFRDEMGMSFDVGTRETGQDLERQSPMVEEHVTSAEERPIVADSFAQDKRNVNNVDYDNDEDDDIYHLSYRNRRGRVLDERGNNETVLNNVVPPKEDLDALLKTFRVQGPVGLEENEKKLLLGWLDAHRKMEKGSMTEEDVQLIQSLEEWEMNDIEGQHTHYDLLPGGDEFGVDQDELDAMKEMGF
notes: Tof1, subunit of the fork protection complex, Saccharomyces cerevisiae (1238 aa by the printed truncation limits); Csm3, subunit of the fork protection complex, Saccharomyces cerevisiae; also called CBP-Csm3Tof1; CBP-tagged Csm3-Tof1
In the case of B2, the binding result in experiment [3] and in experiment [4] was “binds” in each case.
